Source: patent EP1903056A2
pIC50: −log10 of the molar value.

Tests used:
HLA-B*4403 (human) = test: competition binding assay, purified HLA class I
HLA-B*4001 (human) = test: competition binding assay, purified HLA class I

pIC50 (HLA-B*4403 (human)): 5.70 | pIC50 (HLA-B*4001 (human)): 4.98
Substance: WEELSML (MAGE2 position 234, 7-mer) (peptide)
